From patent publication US20260242447A1 (CREATIVE BIOTHERAPEUTICS, published 2026)

Tests used:
[1] = target: T1, GRP78 (soluble / recombinant protein) (UniProt P11021 19-654)
[2] = target: T1, GRP78 (soluble / recombinant protein); test: method not stated

T1 sequence (P11021 19-654 limits assumed): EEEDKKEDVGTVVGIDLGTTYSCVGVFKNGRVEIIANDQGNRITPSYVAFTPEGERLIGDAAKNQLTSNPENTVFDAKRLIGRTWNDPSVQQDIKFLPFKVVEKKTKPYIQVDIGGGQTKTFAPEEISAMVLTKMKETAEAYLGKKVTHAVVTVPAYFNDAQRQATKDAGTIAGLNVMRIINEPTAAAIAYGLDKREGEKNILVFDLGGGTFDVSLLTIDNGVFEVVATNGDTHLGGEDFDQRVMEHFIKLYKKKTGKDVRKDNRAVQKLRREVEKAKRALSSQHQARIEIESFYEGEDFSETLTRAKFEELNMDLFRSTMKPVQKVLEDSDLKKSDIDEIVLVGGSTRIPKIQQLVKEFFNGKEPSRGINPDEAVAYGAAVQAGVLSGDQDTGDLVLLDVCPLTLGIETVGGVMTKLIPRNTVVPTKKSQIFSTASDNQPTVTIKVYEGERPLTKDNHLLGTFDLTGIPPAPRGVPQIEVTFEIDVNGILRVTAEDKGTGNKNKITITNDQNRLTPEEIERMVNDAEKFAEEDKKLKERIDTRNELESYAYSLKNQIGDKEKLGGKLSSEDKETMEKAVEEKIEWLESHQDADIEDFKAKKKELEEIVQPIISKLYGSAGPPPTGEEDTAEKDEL

B1: K5 (5th kringle domain of human plasminogen) (other)
chain: SEEDCMFGNGKGYRGKRATTVTGTPCQDWAAQEPHRHSIFTPETNPRAGLEKNYCRNPDGDVGGPWCYTTNPRKLYDYCDVPQCAAPKS
notes: also called kringle 5
- IC50 [1]: 460 nM
- Kd [2]: 0.6 nM
